Results taken from article PMC9482650, “Quantitative fragmentomics allow affinity mapping of interactomes” (Nature Communications, 2022).
One block for each binder: values may come before it.

Legend:
Experiment in all cases: holdup assay
Design in all cases: key: below the threshold = too weak to quantify, mostly under pKd 3.1 to 4
[1] = target: GRIP2_3, Q9C0E4
[2] = target: IL16_1, Q14005
[3] = target: DLG2_2, Q15700
[4] = target: T1, DLG3_2, Q92796
T1 sequence (Q92796 221-321, limits assumed, looked up): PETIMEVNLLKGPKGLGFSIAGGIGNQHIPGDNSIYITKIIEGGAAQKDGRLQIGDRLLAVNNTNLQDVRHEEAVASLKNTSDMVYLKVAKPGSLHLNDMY

[5] = target: NHERF2_2, Q15599
[6] = target: GRIP2_6, Q9C0E4
[7] = target: MAGI1_1, Q96QZ7
[8] = target: T2, SNTG1, Q9NSN8
T2 sequence (Q9NSN8 52-150, limits assumed, looked up): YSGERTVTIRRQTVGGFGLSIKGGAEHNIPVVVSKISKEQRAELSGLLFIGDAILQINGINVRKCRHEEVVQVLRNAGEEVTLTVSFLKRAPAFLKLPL

[9] = target: LIMK2, P53671
[10] = target: T3, SYNJ2BP, P57105
T3 sequence (P57105 8-110, limits assumed, looked up): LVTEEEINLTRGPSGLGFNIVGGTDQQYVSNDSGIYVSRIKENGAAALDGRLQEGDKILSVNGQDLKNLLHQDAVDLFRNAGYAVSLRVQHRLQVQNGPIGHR

[11] = target: T4, APBA2_1, Q99767
T4 sequence (Q99767 563-664, limits assumed, looked up): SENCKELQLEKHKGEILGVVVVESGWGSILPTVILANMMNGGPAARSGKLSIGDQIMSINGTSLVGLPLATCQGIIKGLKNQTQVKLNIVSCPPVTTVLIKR

[12] = target: T5, TX1BP3, O14907
T5 sequence (O14907 10-122, limits assumed, looked up): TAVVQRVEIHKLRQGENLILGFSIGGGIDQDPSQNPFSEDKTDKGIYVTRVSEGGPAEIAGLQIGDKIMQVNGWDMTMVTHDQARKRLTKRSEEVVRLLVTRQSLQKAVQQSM

[13] = target: T6, ARHGEF11, O15085
T6 sequence (O15085 42-136, limits assumed, looked up): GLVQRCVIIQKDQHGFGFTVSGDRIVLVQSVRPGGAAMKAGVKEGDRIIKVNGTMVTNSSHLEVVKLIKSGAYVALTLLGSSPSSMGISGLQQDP

[14] = target: PTPN3, P26045
[15] = target: MAST1, Q9Y2H9
[16] = target: T7, RADIL, Q96JH8
T7 sequence (Q96JH8 971-1071, limits assumed, looked up): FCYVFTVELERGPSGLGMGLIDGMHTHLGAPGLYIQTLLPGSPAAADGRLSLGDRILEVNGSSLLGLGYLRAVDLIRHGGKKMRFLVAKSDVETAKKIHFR

[17] = target: PDZRN4_1, Q6ZMN7
[18] = target: MAGI2_3, Q86UL8
[19] = target: SCRIB_1, Q14160
[20] = target: DLG4_2, P78352
[21] = target: DLG2_3, Q15700
[22] = target: PARD3_3, Q8TEW0
[23] = target: HTRA1, Q92743
[24] = target: T8, ARHGAP21, Q5T5U3
T8 sequence (Q5T5U3 45-169, limits assumed, looked up): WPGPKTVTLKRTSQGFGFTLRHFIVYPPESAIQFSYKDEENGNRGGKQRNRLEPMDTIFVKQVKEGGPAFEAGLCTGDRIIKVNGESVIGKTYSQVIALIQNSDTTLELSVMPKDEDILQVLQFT

[25] = target: DLG4_1, P78352
[26] = target: T9, LIN7A, O14910
T9 sequence (O14910 103-200, limits assumed, looked up): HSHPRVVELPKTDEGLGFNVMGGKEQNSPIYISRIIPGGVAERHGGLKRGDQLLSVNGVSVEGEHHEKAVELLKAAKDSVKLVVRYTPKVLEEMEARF

[27] = target: T10, RAPGEF6, Q8TEU7
T10 sequence (Q8TEU7 525-625, limits assumed, looked up): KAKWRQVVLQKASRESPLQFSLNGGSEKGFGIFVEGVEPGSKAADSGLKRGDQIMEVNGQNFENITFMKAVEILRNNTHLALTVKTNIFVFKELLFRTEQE

[28] = plain residues with an end cap or a label only (N-terminal biotin on a linker: ado-ado)
[29] = plain residues with an end cap or a label only (N-terminal biotin on a linker: ahx)
[30] = plain residues with an end cap or a label only (N-terminal biotin on a linker: ttds)

PARD3_3, Q8TEW0, sequence (Q8TEW0 582-685): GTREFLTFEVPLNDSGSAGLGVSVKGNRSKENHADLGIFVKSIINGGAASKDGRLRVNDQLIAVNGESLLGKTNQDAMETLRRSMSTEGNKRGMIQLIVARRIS
IL16_1, Q14005, sequence (Q14005 210-306): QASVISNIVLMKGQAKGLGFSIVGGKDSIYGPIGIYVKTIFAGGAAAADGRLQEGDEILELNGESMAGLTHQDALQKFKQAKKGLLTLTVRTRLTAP
LIMK2, P53671, sequence (P53671 143-248): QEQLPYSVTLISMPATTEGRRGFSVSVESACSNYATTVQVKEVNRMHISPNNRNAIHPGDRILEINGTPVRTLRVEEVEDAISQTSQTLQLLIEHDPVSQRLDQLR
NHERF2_2, Q15599, sequence (Q15599 142-238): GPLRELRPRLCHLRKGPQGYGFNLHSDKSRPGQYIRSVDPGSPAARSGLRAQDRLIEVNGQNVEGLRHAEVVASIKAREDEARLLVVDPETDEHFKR
SCRIB_1, Q14160, sequence (Q14160 718-814): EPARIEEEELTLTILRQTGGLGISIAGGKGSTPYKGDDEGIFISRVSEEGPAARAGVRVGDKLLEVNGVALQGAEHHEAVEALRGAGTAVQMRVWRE
PTPN3, P26045, sequence (P26045 505-587): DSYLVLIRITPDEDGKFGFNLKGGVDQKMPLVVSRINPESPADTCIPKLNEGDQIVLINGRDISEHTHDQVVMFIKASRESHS
MAGI1_1, Q96QZ7, sequence (Q96QZ7 1-106): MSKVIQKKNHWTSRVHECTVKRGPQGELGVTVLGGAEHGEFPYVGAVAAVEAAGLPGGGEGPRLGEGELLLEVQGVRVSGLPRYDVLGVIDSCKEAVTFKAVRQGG
MAST1, Q9Y2H9, sequence (Q9Y2H9 962-1065): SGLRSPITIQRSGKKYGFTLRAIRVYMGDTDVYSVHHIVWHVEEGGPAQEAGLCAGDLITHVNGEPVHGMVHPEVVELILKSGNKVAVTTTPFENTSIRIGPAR
GRIP2_3, Q9C0E4, sequence (Q9C0E4 238-339): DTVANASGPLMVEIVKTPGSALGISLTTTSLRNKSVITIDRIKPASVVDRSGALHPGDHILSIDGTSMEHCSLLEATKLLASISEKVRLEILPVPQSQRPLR
GRIP2_6, Q9C0E4, sequence (Q9C0E4 648-740): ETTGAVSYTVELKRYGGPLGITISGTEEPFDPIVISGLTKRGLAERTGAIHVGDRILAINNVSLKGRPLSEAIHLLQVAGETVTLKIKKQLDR
DLG4_1, P78352, sequence (P78352 62-152): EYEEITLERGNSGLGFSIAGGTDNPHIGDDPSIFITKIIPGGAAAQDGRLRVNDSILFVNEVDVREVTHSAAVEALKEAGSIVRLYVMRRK
HTRA1, Q92743, sequence (Q92743 360-477): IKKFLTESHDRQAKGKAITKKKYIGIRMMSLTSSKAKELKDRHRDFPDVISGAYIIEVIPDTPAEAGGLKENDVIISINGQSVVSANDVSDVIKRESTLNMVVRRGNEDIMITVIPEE
PDZRN4_1, Q6ZMN7, sequence (Q6ZMN7 213-318): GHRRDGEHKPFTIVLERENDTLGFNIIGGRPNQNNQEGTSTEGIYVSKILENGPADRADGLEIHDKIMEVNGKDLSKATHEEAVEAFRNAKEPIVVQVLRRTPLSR
DLG4_2, P78352, sequence (P78352 155-259): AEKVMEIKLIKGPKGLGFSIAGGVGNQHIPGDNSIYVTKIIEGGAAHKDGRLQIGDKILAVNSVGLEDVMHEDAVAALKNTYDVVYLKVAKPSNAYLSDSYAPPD
MAGI2_3, Q86UL8, sequence (Q86UL8 600-682): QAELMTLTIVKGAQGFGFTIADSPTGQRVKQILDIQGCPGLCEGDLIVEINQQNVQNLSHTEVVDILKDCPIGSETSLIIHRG

Binder: VNENQKEYFF [CNTNAP4, Q9C0A0]
- pKd [1, 29]: below the threshold
- pKd [2, 29]: below the threshold
- pKd [3, 29]: below the threshold
- pKd [4, 29]: below the threshold
- pKd [5, 29]: below the threshold
- pKd [6, 29]: 5.04
- pKd [7, 29]: below the threshold
- pKd [8, 29]: below the threshold
- pKd [9, 29]: below the threshold
- pKd [10, 29]: below the threshold
- pKd [11, 29]: below the threshold
- pKd [12, 29]: below the threshold
- pKd [13, 29]: below the threshold
- pKd [14, 29]: 4.55
- pKd [15, 29]: 4.3
- pKd [16, 29]: 4.3
- pKd [17, 29]: below the threshold
- pKd [18, 29]: below the threshold
- pKd [19, 29]: below the threshold
- pKd [20, 29]: below the threshold
- pKd [21, 29]: below the threshold
- pKd [22, 29]: 5.32
- pKd [23, 29]: 4.72
- pKd [24, 29]: 3.91
- pKd [25, 29]: below the threshold
- pKd [26, 29]: below the threshold
- pKd [27, 29]: below the threshold

Binder: SQDPKKPSRV [CBY2, Q8NA61]
- pKd [1, 28]: below the threshold
- pKd [2, 28]: below the threshold
- pKd [3, 28]: below the threshold
- pKd [4, 28]: below the threshold
- pKd [5, 28]: below the threshold
- pKd [6, 28]: below the threshold
- pKd [7, 28]: 3.49
- pKd [8, 28]: below the threshold
- pKd [9, 28]: below the threshold
- pKd [10, 28]: 3.66
- pKd [11, 28]: below the threshold
- pKd [12, 28]: below the threshold
- pKd [13, 28]: below the threshold
- pKd [14, 28]: below the threshold
- pKd [15, 28]: below the threshold
- pKd [16, 28]: 3.61
- pKd [17, 28]: below the threshold
- pKd [18, 28]: below the threshold
- pKd [19, 28]: below the threshold
- pKd [20, 28]: 3.49
- pKd [21, 28]: below the threshold
- pKd [22, 28]: below the threshold
- pKd [23, 28]: below the threshold
- pKd [24, 28]: 4.04
- pKd [25, 28]: 3.66
- pKd [26, 28]: below the threshold
- pKd [27, 28]: below the threshold

Next, values leading:

- pKd [1, 28]: below the threshold
- pKd [2, 28]: below the threshold
- pKd [3, 28]: below the threshold
- pKd [4, 28]: 4.09
- pKd [5, 28]: below the threshold
- pKd [6, 28]: below the threshold
- pKd [7, 28]: below the threshold
- pKd [8, 28]: below the threshold
- pKd [9, 28]: below the threshold
- pKd [10, 28]: 3.5
- pKd [11, 28]: below the threshold
- pKd [12, 28]: below the threshold
- pKd [13, 28]: below the threshold
- pKd [14, 28]: below the threshold
- pKd [15, 28]: below the threshold
- pKd [16, 28]: below the threshold
- pKd [17, 28]: below the threshold
- pKd [18, 28]: below the threshold
- pKd [19, 28]: below the threshold
- pKd [20, 28]: below the threshold
- pKd [21, 28]: 3.62
- pKd [22, 28]: below the threshold
- pKd [23, 28]: 3.76
- pKd [24, 28]: below the threshold
- pKd [25, 28]: below the threshold
- pKd [26, 28]: below the threshold
- pKd [27, 28]: below the threshold
Binder: DAAHHDESNC [FMNL3, Q8IVF7]

- pKd [1, 28]: below the threshold
- pKd [2, 28]: below the threshold
- pKd [3, 28]: below the threshold
- pKd [4, 28]: below the threshold
- pKd [5, 28]: 4.47
- pKd [6, 28]: below the threshold
- pKd [7, 28]: below the threshold
- pKd [8, 28]: below the threshold
- pKd [9, 28]: below the threshold
- pKd [10, 28]: below the threshold
- pKd [11, 28]: below the threshold
- pKd [12, 28]: below the threshold
- pKd [13, 28]: below the threshold
- pKd [14, 28]: 4.25
- pKd [15, 28]: 4.67
- pKd [16, 28]: below the threshold
- pKd [17, 28]: below the threshold
- pKd [18, 28]: below the threshold
- pKd [19, 28]: 3.5
- pKd [20, 28]: below the threshold
- pKd [21, 28]: below the threshold
- pKd [22, 28]: below the threshold
- pKd [23, 28]: below the threshold
- pKd [24, 28]: below the threshold
- pKd [25, 28]: 3.49
- pKd [26, 28]: below the threshold
- pKd [27, 28]: below the threshold
Binder: EKPIDSETKM [SLC1A3, P43003]

- pKd [1, 30]: below the threshold
- pKd [2, 30]: below the threshold
- pKd [3, 30]: 4.29
- pKd [4, 30]: 4.35
- pKd [5, 30]: below the threshold
- pKd [6, 30]: 3.36
- pKd [7, 30]: below the threshold
- pKd [8, 30]: 3.76
- pKd [9, 30]: below the threshold
- pKd [10, 30]: 4.7
- pKd [11, 30]: below the threshold
- pKd [12, 30]: 4.23
- pKd [13, 30]: below the threshold
- pKd [14, 30]: 4.75
- pKd [15, 30]: 4.56
- pKd [16, 30]: below the threshold
- pKd [17, 30]: 4.57
- pKd [18, 30]: below the threshold
- pKd [19, 30]: 4.49
- pKd [20, 30]: 4.58
- pKd [21, 30]: 4.64
- pKd [22, 30]: below the threshold
- pKd [23, 30]: below the threshold
- pKd [24, 30]: below the threshold
- pKd [25, 30]: 3.97
- pKd [26, 30]: below the threshold
- pKd [27, 30]: below the threshold
Binder: PSRDRKETSI [RALBP1, Q15311]
